In article PMC3672946 (Nature, 2013):

B2: Nqo14 (natural protein, Thermus thermophilus, UniProt Q56229 1-427, looked up)
chain: MTLAILAVFSVALTLLGFVLPPQGVKRATLLGLALALASLLLTWGKPFAFGPYAVDGVSQVFTLLALLGALWTVGLVRSGRFEFYLLVLYAALGMHLLASTRHLLLMLVALEALSLPLYALATWRRGQGLEAALKYFLLGALAAAFFLYGAALFYGATGSLVLGAPGEGPLYALALGLLLVGLGFKAALAPFHFWTPDVYQGSPTPVVLFMATSVKAAAFAALLRVAAPPEALALLVALSVVVGNLAALAQKEAKRLLAYSSIAHAGYMALALYTGNAQALGFYLLTYVLATGLAFAVLSQISPDRVPLEALRGLYRKDPLLGLAFLVAMLSLLGLPPLAGFWGKYLAFAEAARAGAWGVLVLALVTSAVSAYYYLGLGLAVFARPEETPFRPGPPWARAAVVAAGVLLLALGLLPGLVLPALAAGG

Key:
Experiment in all cases: crystal structure
[1] = molecular target: T1, Nqo8 (Thermus thermophilus, UniProt Q60019 1-365)
T1 sequence (looked up): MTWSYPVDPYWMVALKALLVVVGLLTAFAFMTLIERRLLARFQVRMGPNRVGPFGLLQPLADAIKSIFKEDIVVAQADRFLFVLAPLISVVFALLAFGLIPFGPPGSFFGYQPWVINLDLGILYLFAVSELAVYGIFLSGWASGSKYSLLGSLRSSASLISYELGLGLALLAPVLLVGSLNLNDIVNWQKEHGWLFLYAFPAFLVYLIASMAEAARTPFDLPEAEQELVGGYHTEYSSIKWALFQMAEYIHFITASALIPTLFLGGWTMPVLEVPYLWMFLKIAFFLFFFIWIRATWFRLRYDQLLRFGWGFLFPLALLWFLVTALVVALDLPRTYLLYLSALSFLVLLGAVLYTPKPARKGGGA

[2] = molecular target: T2, Nqo12 (Thermus thermophilus, UniProt Q56227 1-606)
T2 sequence (looked up): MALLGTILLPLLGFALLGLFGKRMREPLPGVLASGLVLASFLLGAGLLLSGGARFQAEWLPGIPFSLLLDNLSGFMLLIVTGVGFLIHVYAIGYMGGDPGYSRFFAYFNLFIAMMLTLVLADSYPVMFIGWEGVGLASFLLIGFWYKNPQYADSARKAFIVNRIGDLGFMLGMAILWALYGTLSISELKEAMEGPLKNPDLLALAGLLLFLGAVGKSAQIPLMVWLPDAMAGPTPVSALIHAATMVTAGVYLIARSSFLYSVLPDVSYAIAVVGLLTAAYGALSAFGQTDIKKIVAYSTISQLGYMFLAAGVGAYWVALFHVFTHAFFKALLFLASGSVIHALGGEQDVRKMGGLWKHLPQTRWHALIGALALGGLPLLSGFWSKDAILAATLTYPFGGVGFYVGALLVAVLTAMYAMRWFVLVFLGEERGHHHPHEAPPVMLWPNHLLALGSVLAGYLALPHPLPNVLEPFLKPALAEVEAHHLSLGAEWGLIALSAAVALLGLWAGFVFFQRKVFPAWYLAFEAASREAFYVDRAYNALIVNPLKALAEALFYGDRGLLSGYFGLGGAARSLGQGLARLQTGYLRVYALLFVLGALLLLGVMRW

[3] = molecular target: T3, Nqo10 (Thermus thermophilus, UniProt Q56225 1-176)
T3 sequence (looked up): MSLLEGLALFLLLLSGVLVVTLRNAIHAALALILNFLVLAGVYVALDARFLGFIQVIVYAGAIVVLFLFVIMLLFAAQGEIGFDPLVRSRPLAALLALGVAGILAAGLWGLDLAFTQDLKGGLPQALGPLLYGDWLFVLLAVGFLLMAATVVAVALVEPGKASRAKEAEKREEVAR

[4] = molecular target: B2

B1: Nqo7 (natural protein, Thermus thermophilus, UniProt Q56217 1-119, looked up)
chain: MAPIQEYVGTLIYVGVALFIGVAALLVGALLGPKKPGRAKLMPYESGNDPAGEVKRFPVHFYVVAMLFILFDVEVAFLWPYAVSAGGLGLYGFLGVLAFTLLLFVGFLYEWWKGVMRWH
Does B1 bind [1]?
Result: binds

Does B2 bind [2]?
Result: binds

B3: Nqo11 (natural protein, Thermus thermophilus, UniProt Q56226 1-95, looked up)
chain: MSYLLTSALLFALGVYGVLTRRTAILVFLSIELMLNAANLSLVGFARAYGLDGQVAALMVIAVAAAEVAVGLGLIVAIFRHRESTAVDDLSELRG
Does B3 bind [3]?
Result: binds

Does B3 bind [4]?
Result: binds

B4: Nqo13 (natural protein, Thermus thermophilus, UniProt Q56228 1-469, looked up)
chain: MVVLAVLLPVVFGALLLLGLPRALGVLGAGLSFLLNLYLFLTHPGGVAHAFQAPLLPGAGVYWAFGLDGLSALFFLTIALTVFLGALVARVEGRFLGLALLMEGLLLGLFAARDLLVFYVFFEAALIPALLMLYLYGGEGRTRALYTFVLFTLVGSLPMLAAVLGARLLSGSPTFLLEDLLAHPLQEEAAFWVFLGFALAFAIKTPLFPLHAWLPPFHQENHPSGLADALGTLYKVGVFAFFRFAIPLAPEGFAQAQGLLLFLAALSALYGAWVAFAAKDFKTLLAYAGLSHMGVAALGVFSGTPEGAMGGLYLLAASGVYTGGLFLLAGRLYERTGTLEIGRYRGLAQSAPGLAALALILFLAMVGLPGLSGFPGEFLTLLGAYKASPWLAALAFLSVIASAAYALTAFQKTFWEEGGSGVKDLAGAEWGFALLSVLALLLMGVFPGYFARGLHPLAEAFAKLLGGGA
Does B4 bind [2]?
Result: binds
